These results are taken from the supplement of paper PMC10567573.

B1: VPS39 (parent)
chain: ITEEKVCMVCKKKIGNSAFARYPN
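Note: lentivirally expressed fusions sorted by FACS into six bins by GFP to DsRed ratio, PSI derived from sequencing read proportions per bin multiplied by bin number.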

In this data set the parent is B1. As to the kind of experiment: protein stability index of a GFP-peptide fusion (GPS, HEK-293T) (PSI 1-6); higher = more stable. The note with it: c terminus: a fixed tail appended.
With ITEEKVCMVCKKKIGNSALARYPN [F19L], the protein stability index is 2.28.
With ITEEKVCMVCKKKIGNSADARYPN [F19D], the protein stability index was 4.58.
In the case of ITEEKVCMVCKKKIGNSANARYPN [F19N] it was 2.69.
With ITEEKVCMVCKKKIGNSAMARYPN [F19M], the protein stability index came to 2.39.
As to ITEEKVCMVCKKKIGNSAKARYPN [F19K], the protein stability index was determined as 3.55.
Under ITEEKVCMVCKKKIGNSACARYPN [F19C] stands 3.52; under ITEEKVCMVCKKKIGNSAGARYPN [F19G], 3.29; under ITEEKVCMVCKKKIGNSAHARYPN [F19H], 2.89.
In the case of ITEEKVCMVCKKKIGNSASARYPN [F19S] it was 2.56; in that of ITEEKVCMVCKKKIGNSAEARYPN [F19E], 3.62; in that of ITEEKVCMVCKKKIGNSAAARYPN [F19A], 3.58.
Under ITEEKVCMVCKKKIGNSAPARYPN [F19P] stands 3.14; under ITEEKVCMVCKKKIGNSATARYPN [F19T], 3.58.
Consider ITEEKVCMVCKKKIGNSARARYPN [F19R], for which the protein stability index stood at 2.91.
In the case of ITEEKVCMVCKKKIGNSAWARYPN [F19W] it was 2.34; in that of ITEEKVCMVCKKKIGNSAQARYPN [F19Q], 3.58; in that of ITEEKVCMVCKKKIGNSAVARYPN [F19V], 3.27.
In the case of ITEEKVCMVCKKKIGNSAIARYPN [F19I] it was 2.82.
Turning to ITEEKVCMVCKKKIGNSAYARYPN [F19Y], the protein stability index was 3.06.
In the case of ITEEKVCMVCTKKIGNSAFARYPN [K11T] it was 2.2; in that of ITEEKVCMVCWKKIGNSAFARYPN [K11W], 1.69; in that of ITEEKVCMVCVKKIGNSAFARYPN [K11V], 2.23.
Under ITEEKVCMVCYKKIGNSAFARYPN [K11Y] stands 2.12; under ITEEKVCMVCRKKIGNSAFARYPN [K11R], 1.98; under ITEEKVCMVCSKKIGNSAFARYPN [K11S], 1.7.
As to ITEEKVCMVCKKKIGNSAFACYPN [R21C], the protein stability index is 2.5.
In the case of ITEEKVCMVCKKKIGNSAFAHYPN [R21H] it was 2.99; in that of ITEEKVCMVCKKKIGNSAFALYPN [R21L], 2.45; in that of ITEEKVCMVCKKKIGNSAFAFYPN [R21F], 2.39.
Under ITEEKVCMVCKKKIGNSAFADYPN [R21D] stands 4.02; under ITEEKVCMVCKKKIGNSAFAGYPN [R21G], 2.83.
Under ITEEKVCMVCKKKIGNSAFANYPN [R21N] stands 2.71; under ITEEKVCMVCKKKIGNSAFAKYPN [R21K], 2.77.
ITEEKVCMVCKKKIGNSAFAIYPN [R21I]: the protein stability index came out at 2.93.
In the case of ITEEKVCMVCKKKIGNSAFAMYPN [R21M] it was 2.71.
Under ITEEKVCMVCKKKIGNSAFAAYPN [R21A] stands 2.86; under ITEEKVCMVCKKKIGNSAFAEYPN [R21E], 3.15; under ITEEKVCMVCKKSIGNSAFARYPN [K13S], 2.36.
Consider ITEEKVCMVCKKTIGNSAFARYPN [K13T], for which the protein stability index was found to be 1.83.
For ITEEKVCMVCKKYIGNSAFARYPN [K13Y], the protein stability index is 2.11.
Under ITEEKVCMVCKKPIGNSAFARYPN [K13P] stands 2.27; under ITEEKVCMVCKKRIGNSAFARYPN [K13R], 2.29; under ITEEKVCMVCKKEIGNSAFARYPN [K13E], 3.04.
Under ITEEKVCMVCKKCIGNSAFARYPN [K13C] stands 2.01; under ITEEKVCMVCKKFIGNSAFARYPN [K13F], 2.28.
Under ITEEKVCMVCKKIIGNSAFARYPN [K13I] stands 2.02.
On to ITEEKVCMVCKKVIGNSAFARYPN [K13V], for which the protein stability index was 1.98.
Under ITEEKVCMVCKKNIGNSAFARYPN [K13N] stands 2.33; under ITEEKVCMVCKKMIGNSAFARYPN [K13M], 2.07.
For ITEEKVCMVCKKGIGNSAFARYPN [K13G], the protein stability index is 1.35.
Under ITEEKVCMVCKKAIGNSAFARYPN [K13A] stands 1.7; under ITEEKVCMVCKKQIGNSAFARYPN [K13Q], 2.6.
Under ITEEKVCMVCKKWIGNSAFARYPN [K13W] stands 1.52.
Under ITEEKVCMVCKKDIGNSAFARYPN [K13D] stands 2.73; under ITEEKVCMVCKKHIGNSAFARYPN [K13H], 2.01; under ITEEKVCMVCKKLIGNSAFARYPN [K13L], 1.64.
For ITEEKVCMVCKKKIGFSAFARYPN [N16F], the protein stability index was 1.58.
Turning to ITEEKVCMVCKKKIGCSAFARYPN [N16C], the protein stability index is 2.8.
In the case of ITEEKVCMVCKKKIGGSAFARYPN [N16G] it was 3.01; in that of ITEEKVCMVCKKKIGVSAFARYPN [N16V], 2.37; in that of ITEEKVCMVCKKKIGQSAFARYPN [N16Q], 3.01.
For ITEEKVCMVCKKKIGDSAFARYPN [N16D], the protein stability index was determined as 2.62.
In the case of ITEEKVCMVCKKKIGKSAFARYPN [N16K] it was 2.34; in that of ITEEKVCMVCKKKIGLSAFARYPN [N16L], 2.05.
Under ITEEKVCMVCKKKIGTSAFARYPN [N16T] stands 2.77; under ITEEKVCMVCKKKIGHSAFARYPN [N16H], 2.48.
In the case of ITEEKVCMVCKKKIGSSAFARYPN [N16S] it was 2.35; in that of ITEEKVCMVCKKKIGASAFARYPN [N16A], 2.42.
Turning to ITEEKVCMVCKKKIGYSAFARYPN [N16Y], the protein stability index is 2.1.
Under ITEEKVCMVCKKKIGWSAFARYPN [N16W] stands 2.08; under ITEEKVCMVCKKKIGRSAFARYPN [N16R], 2.29.
In the case of ITEEKVCMVCKKKIGPSAFARYPN [N16P], the protein stability index stood at 2.81.
Under ITEEKVCMVCKKKIGMSAFARYPN [N16M] stands 1.54; under ITEEKVCMVCKKKIGESAFARYPN [N16E], 2.48.
In the case of ITEEKVCMVCKKKIGISAFARYPN [N16I] it was 2.02; in that of ITEEKVCMVCKKKIGNSHFARYPN [A18H], 2.73; in that of ITEEKVCMVCKKKIGNSSFARYPN [A18S], 3.04.
Under ITEEKVCMVCKKKIGNSYFARYPN [A18Y] stands 1.89.
As for ITEEKVCMVCKKKIGNSPFARYPN [A18P], the protein stability index turned out to be 2.19.
In the case of ITEEKVCMVCKKKIGNSRFARYPN [A18R] it was 2.26.
Under ITEEKVCMVCKKKIGNSLFARYPN [A18L] stands 2.4; under ITEEKVCMVCKKKIGNSKFARYPN [A18K], 2.4; under ITEEKVCMVCKKKIGNSNFARYPN [A18N], 2.99.
Under ITEEKVCMVCKKKIGNSQFARYPN [A18Q] stands 2.41; under ITEEKVCMVCKKKIGNSFFARYPN [A18F], 2.15.
Consider ITEEKVCMVCKKKIGNSIFARYPN [A18I], for which the protein stability index worked out at 1.81.
On to ITEEKVCMVCKKKIGNSMFARYPN [A18M], for which the protein stability index is 2.34.
In the case of ITEEKVCMVCKKKIGNSWFARYPN [A18W] it was 2.08; in that of ITEEKVCMVCKKKIGNSDFARYPN [A18D], 3.65; in that of ITEEKVCMVCKKKIGNSGFARYPN [A18G], 3.02.
In the case of ITEEKVCMVCKKKIGNSCFARYPN [A18C] it was 2.37.
Under ITEEKVCMVCKKKIGNSEFARYPN [A18E] stands 3.2.
With ITEEKVCMVCKKKIGNSVFARYPN [A18V], the protein stability index was 2.
In the case of ITEEKVCMVCKKKIGNSTFARYPN [A18T] it was 2.52.
